From the supplement of paper PMC9732359
± gives the uncertainty stated by the source.

test: protein stability index of a GFP-peptide fusion (yeast GPS) (PSI 1-4); higher = more stable; sorted into four equal gates, so the index is relative within each strain; details: pdr5∆
Outline: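 Sequencing reads from sorted gates were used to score each peptide. The library consisted of tiled 17-residue yeast protein peptides fused downstream of GFP on a Cherry-expressing plasmid, pooled and carried in yeast. Mid-log cultures in leucine-free medium were split into four equal gates by GFP/Cherry ratio, and each gate's plasmids were PCR-amplified and Illumina-sequenced. The protein stability index adds up, over all gates, the read frequency multiplied by the gate number.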

Sequence	protein stability index
RQQKLLEDQQRQQKLLL [SWI1]	3.05 ± 0.062
RQTLAPYAVLSQFYELR [YJR042W/NUP85]	2.75 ± 0.24
RRGTALGIKKEKRIQYA [RPB2]	1.44 ± 0.14
RRMGILKKILDQCKKQR [RPO31]	1.7 ± 0.29
RRSKMNPLWNAIIVAGV [PRE4]	3.25 ± 0.12
RRTYNTLEDKFLLLAVN [ISW2]	1.67 ± 0.076
RSEFIESLLNWINRSDG [YJR042W/NUP85]	3.11 ± 0.15
RSMDAEQLGHASKRHKP [RPP1]	2.87 ± 0.053
RSNGSVASLSKRNKLLT [YJL039C/NUP192]	1.55 ± 0.068
RSYDLTRHQNTIHAKRK [RPN4]	2.48 ± 0.065
RTLWPEFIPPDPTKVTE [SSN8]	2.73 ± 0.038
RTQAGDIVSIDIEEPQL [MTW1]	3.26 ± 0.1
RTRRLKRKRRKVRARSK [RPL41A]	3.13 ± 0.22
RVFNAKDTTGPKAISNF [YCS4]	2.82 ± 0.13
RVLITQRHIAVGKQIVN [RPS9A]	1.92 ± 0.087
RVNEMVQGMNDDIFIRY [ECM29]	1.89 ± 0.17
RVSLQDIKDFADKVYTK [QCR2]	3.07 ± 0.082
RYFWLDHNGVPFPQYPA [ITC1]	2.81 ± 0.086
RYPMNLLEFIIDEIAYL [ECM29]	2.89 ± 0.1
RYVYAHFPINVNIVEKD [RPL9A]	2.17 ± 0.049
SAENRDEKDYLTNQQPK [CSE2]	2.79 ± 0.062
SAESWGTGRAVARIPRV [RPL4A]	3.51 ± 0.28
SAFKFIHTQLSEIKQQI [YJL039C/NUP192]	2.62 ± 0.087
SAGNDKMVKAWNLNQFQ [ASC1]	2.38 ± 0.054
SAKGPEIIPLQDYYIIG [MED6]	3.14 ± 0.054
SAKTRSHNWAAKAKRRH [RPL37B]	3.32 ± 0.071

Sequence	protein stability index
SALEQAIIYQRGKDGKL [YGL100W/SEH1]	3.22 ± 0.051
SAMPAPYMPYYYYYHPM [DSN1]	2.87 ± 0.056
SANTNNTCTISTSKFES [SWP82]	2.51 ± 0.07
SARGIETRPAQVILPMS [FAS2]	2.93 ± 0.073
SASFSLKNGDKPHLLKF [RPL6B]	2.42 ± 0.23
SASTSATGISGSVSEET [ECM29]	3.25 ± 0.047
SCQIAQPYEDRPFEGLF [RRP45]	3.26 ± 0.095
SCSFFAKLSDTLIIDQV [NUT1]	1.79 ± 0.051
SDAMSIDEEDKDSESFS [YCG1]	1.95 ± 0.1
SDEEENNNNKSINKNNK [SSN2]	3.02 ± 0.079
SDEKKDGDASKPAFSFG [YJL041W/NSP1]	2.64 ± 0.23
SDELHNQSTIYEDEELS [LIN1]	2.87 ± 0.098
SDIESLEALMDILLCYQ [SRB8]	2.74 ± 0.2
SDIKQGYTQHGGLRPFG [PRE9]	2.53 ± 0.23
SDINQNDDSSSMNATMR [YDL088C/ASM4]	2.98 ± 0.075
SDLKGKLSSAENANADL [YIL149C/MLP2]	3.35 ± 0.1
SDLNLTDRQKKLLGVDM [YLR018C/POM34]	3.09 ± 0.055
SDMENDNLLLNLEQINE [REC8]	2.75 ± 0.048
SDNSVSVRLQVTKILPH [IRR1]	2.92 ± 0.12
SDREMAALIASKVYYNL [RPN2]	1.83 ± 0.056
SDSETNHKSKDNNNGDD [SKP1]	3.17 ± 0.051
SDSIELLKQYPKDSSST [YJR042W/NUP85]	2.77 ± 0.051
SDSLDIAQGIDLVRDID [SRP72]	3.38 ± 0.088
SEAEQIDTSKNLENMSI [YCG1]	3.28 ± 0.068
SEAFPSLQSCSVAVHFQ [SMC4]	2.09 ± 0.082
SEEKIRDYSKEILGINL [SIR4]	3.03 ± 0.083

Sequence	protein stability index
SEETQFKYVEDRFPLKL [ITC1]	3.09 ± 0.13
SEFLNVPFESLQGVTYP [YIL149C/MLP2]	2.56 ± 0.078
SEGEQKSAEGNNIDQSL [YAR002W/NUP60]	2.94 ± 0.048
SEGSGSSLVQKGLETID [RPC53]	3.14 ± 0.14
SEGYQKTFSRLDALTRH [RPN4]	1.56 ± 0.15
SEISDGKLKRCSRCGSV [SIN4]	3.4 ± 0.14
SEVRKAVSIETALEHKV [FAS2]	1.4 ± 0.095
SFALPFEEDEKNSDVWF [RPN8]	3.23 ± 0.072
SFCGFLLYYIPSLELSA [YJR042W/NUP85]	1.58 ± 0.065
SFDAVSDSIELLKQYPK [YJR042W/NUP85]	3.16 ± 0.085
SFHVQKKTCSSCGYPAA [RPL37A]	2.13 ± 0.11
SFILSSLEDPQVRKKQI [YDL116W/NUP84]	2.09 ± 0.079
SFKIFVDVLVISSHSHP [RRP42]	1.21 ± 0.047
SFLEKPKFAIQDNHHIT [YMR129W/POM152]	2.81 ± 0.081
SFLKEGDLLNAEVQSLF [RRP4]	3.03 ± 0.091
SFLSKHALYLAPSGIRM [SSN2]	1.56 ± 0.059
SFNIPRLTFKPWVVYLQ [YMR129W/POM152]	1.29 ± 0.055
SFQKKSNDKVVEWINPS [ISW2]	3.39 ± 0.072
SFTNYITRSFKEPRLVI [RPS0A]	2.79 ± 0.068
SFTSATERHIQVGDGLE [PRE7]	2.56 ± 0.075
SGCENITDKTIESIVNL [GRR1]	2.94 ± 0.099
SGEDAEEELWNSPSKGN [YIL149C/MLP2]	3.25 ± 0.084
SGIRLIEPELFNGYNPE [FAS2]	2.89 ± 0.074
SGKRKPTKAAQRARDQD [GAL11]	3.65 ± 0.16
SGKSNFFAAIRFVLSDD [SMC3]	3.36 ± 0.096
SGNDSMAGKVLILTSHN [BRR2]	2.28 ± 0.072

Sequence	protein stability index
SGRNIHLAVVCVDDNSK [SSN2]	1.61 ± 0.045
SGTDGSTIGILLLTIQL [SRP72]	2.91 ± 0.064
SGWTPFHIACSVGNLEV [NAS6]	1.89 ± 0.074
SHAVEFFMSERSSRLHI [YML103C/NUP188]	2.73 ± 0.079
SHEERIEAIDEYNKPNS [ISW2]	2.12 ± 0.054
SIEFAKREKRVFLKHSL [RPN6]	3.4 ± 0.17
SIEMEEETDDEDKQNIE [RRI2]	3.32 ± 0.11
SIGASIADLASLEQLLG [YCS4]	2.94 ± 0.064
SIHAHGSTDVGYYLSLG [PUP1]	2.79 ± 0.069
SILEHSGIRLIEPELFN [FAS2]	2.99 ± 0.061
SIMAVTFKDGVILGADS [PRE3]	2.61 ± 0.094
SIQPIESNIKMTLEDNN [SSN2]	3.08 ± 0.075
SIVLDSEHFDVNDNPDI [DIS3]	3.11 ± 0.053
SIWQVKDQLPDLESMGL [MED7]	3.04 ± 0.079
SKALNSILESSMFLRID [RGR1]	2.67 ± 0.11
SKDIETLKKEWLKEYED [YIL149C/MLP2]	3.16 ± 0.085
SKGSFINIAQMSACVGQ [RPO21]	1.61 ± 0.053
SKICLSHFSLDQFITSL [ITC1]	2.86 ± 0.076
SKIFNESFPDDIPLAKA [CDC53]	2.89 ± 0.067
SKISQMAQNKTHIPQTN [YLR018C/POM34]	2.21 ± 0.12
SKKAEKTGTKPAAVFAE [RPL4B]	2.8 ± 0.084
SKLDIYTQQQALEYIGA [RET1]	2.23 ± 0.1
SKLEGTINKAVQVKVLG [ESC2]	1.93 ± 0.12
SKLLYDDVTCDKLSVSE [SIN4]	3.02 ± 0.053
SKLSEHLNHYILLRYHH [YCG1]	1.73 ± 0.059
